Data reported in the supplement of paper PMC9170038.

Experiments:
[1] = system: K4 kissing-loop RNA reporter; test: apparent KD of K4 kissing-loop reporter; higher = weaker reporter binding; settings: Eterna round: R107;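 note: bound reporter read as fluorescence of individual clusters on recovered sequencing chips by microscopy, with normalized cluster intensities fitted with a binding model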
Method: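 RNA-MaP round R107: designed RNA switches with theophylline, tryptophan, arginine or FMN aptamers are transcribed on-chip within common flanks. They are titrated with a labelled K4 kissing-loop RNA reporter in RNA-MaP buffer (100 mM Tris pH 7.5, 80 mM KCl, 4 mM MgCl2), without ligand or with the indicated ligand. Median apparent KD per design.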

[2] = system: MS2 coat protein; test: apparent KD of MS2 coat protein; designed switch direction (-1 OFF switch, 1 ON switch): -1; higher = weaker reporter binding
Procedure, shortened: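 Stalled E. coli RNA polymerase transcribed designed RNA switches on Illumina chips, which were then titrated with SNAP-549-labelled MS2 coat protein, doubling from 0.7 or 1.5 nM to 3 µM. Steps lasted from 0.8–1.5 h at the lowest concentration to 10–20 min at the highest. The apparent KD is each design's median over clusters of curve-fitted normalised fluorescence.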

[3] = input ligand: theophylline 20 uM
[4] = input ligand: tryptophan 2.4 mM
[5] = input ligand: microRNA oligo, concentration not stated

Sequence	apparent KD of K4 kissing-loop reporter ([1]; input ligand: FMN 200 uM) [nM]	apparent KD of K4 kissing-loop reporter ([1]; input ligand: arginine 13.2 mM) [nM]	apparent KD of K4 kissing-loop reporter ([1]; input ligand: none) [nM]	apparent KD of K4 kissing-loop reporter [1, 3] [nM]	apparent KD of K4 kissing-loop reporter [1, 4] [nM]	apparent KD of MS2 coat protein ([2]; input ligand: FMN 200 uM) [nM]	apparent KD of MS2 coat protein ([2]; input ligand: none) [nM]	also measured
GGAUGGUAGGCGGCCGCCACUAAAAGUGAACACAUACAAGCCAGUGAUGUUGGUAUGAUGGACUAUAGGACCGGGCCUAGAUAGA [Exclusion - Tryptophan B (Freestyle 6)]	468	410	522	454	466			
AUUAUAAAGUCGGCCGCCACUGAGAGUAGUGAUGUUACUCUAUUCCUUUACAUAUUAUAGUUUAUCAGGACCGGGACAUCAGAUU [JR_ExcTryptoB_Sub018]	268	214	279	246	199			
CUGACCAACAGCGAUACCAGUGUGGAGUGAUGUUCCCUGGUCCGGGCUGAUGUUCCCUUGCGCCCUUGGCAGCGCAGAAGCAGGU [Exclusion Theophylline B GF 13]	433	295	359	349	338			
UGUACUCUGAAAGGAUAUGUGAGCCCUUUUUGUUAGUGAUGUUGACACGGAAACACCAUCAGACUUACAGAAGGUUCGUUGGGUA [theeternabot_sameState_KL_FMN_B_17]	375	183	241	286	252			
UGAUACCAGACGGCCGCCACUCCUGCAGUCAAAGACUGCUAAAAGGAAAUCGUCCAGUGAUGUUGGAGGACCGGGUCUGGUAUCU [TrypBX 14 #SwitchBubble #Palindromic #StaticStem]	647	738	1150	685	372			
UUUGUAUAGGGAAGGAGCGUGAAUGAUAAUGAAUAUAGUGAUGUUAUAUAUAAGAAAGAAUCACAGGUAGGUCGCCCGGAUGAGG [SSArgB.K]	557	400	565	855	412			
UAAGAAUAACAUGCAGUGAUGUUGCAUGUACGAGGACCGGUACGGCCGCCACUCGAGUCCUCGAACAUGCACCGAGGAAUAACAA [(H,1)-(H,2)-(Trp1)-(Trp2)-(T)'-(H)'-(T)'']	201	118	116	161	402			
AACUCUCAGAUACUUGAGUGAUGUUCAGGCCGAGGACCGGUACGGCCGCCACUCGGGUCUGAGAGAGGUUAUCAAAGAUAGCCAA [Omei KL Tryp A SS A v10]	266	197	257	329	236			
CGAGAAAGAGCGACUGGCGAUCUGUCUGAAGGAGCGGGUGCUAGCCCAGGUAGGUCGCAGACCUUGACGCCAGUGAUGUUGGCGG [Ritiatso]	220	180	208	252	177			
UAAUCCUAGUGAUAAUAAUCAAGUGGUGGGCGAGGACCGGUACGGCCGCCACUCGAAAAUGCAGUGAUGUUGUAAUCCGGAUAAU [Exclusion - Tryptophan A (Freestyle 5)]	798	874	1080	872	450			
GACAUCUAUCGCCGAUAGUGUUUAUCUUGGGAGGAUAUGUCAGCGGACAGAAGGCCCAGUGAUGUUGGGUAGAUGACCGUUGCCU [Orerditi]	337	123	131	131	128			
GGUCAGAUGGUAGGAUAUCCAUAUCGAGUGACCCUUUCAUAACAUGAGGAUCACCCAUGUCGGUGGGAGAAGGGCUGUACGGCG [salish99_ExNG02_R04_021] (Eterna round: R96, puzzle: Exclusion NG 2)						34.8	43.3	apparent KD of MS2 coat protein [2, 5]: 19.1 nM
AAUUAAACAAGCAGAUCCCACAUGAGGAUCACCCAUGUGCUCGUCUUAUAAGGUACUGUGACGAGAGUCACGGUACC [Mat - Sensor, turn-off var - Eli Mod - D64] (Eterna round: R97, puzzle: Sensor, turn-off variant 1)						66.4	47.4	
UCCUCACAUGAGGAUCACCCAUGUGAGGAUAUCAUGCUUCGUAGUAAACUACGAAGUGUGAGAAGGCACAUGGC [Omei Ex1 D15] (Eterna round: R97, puzzle: Exclusion 1)						23.9	19.6	
GGAGAGAAACAGGAUAUGGGAGGGAGGACCGGACCAGAAGGGUUGACAUGAGGAUCACCCAUGUAGAGAUCCUC [AK-MS2ROC-r4-exclusion6-6.7] (Eterna round: R97, puzzle: Exclusion 6)						486	1700	
AGUACUAACACGGAAGUGUUAGUACUAUAAGCUUGUGUUACAUGAGGAUCACCCAUGUCCUCAUAAGCUCGUCUUAA [Mat - Sensor v3 - Turn-off var 2 - D70] (puzzle: Sensor v3, turn-off variant 2)								apparent KD of MS2 coat protein ([2]; Eterna round: R95, input ligand: FMN 200 uM): 35.1 nM; apparent KD of MS2 coat protein ([2]; Eterna round: R95, input ligand: microRNA oligo, concentration not stated): 127 nM; apparent KD of MS2 coat protein ([2]; Eterna round: R95, input ligand: none): 36.4 nM
GUGUAACAUGAGGAUCACCCAUGUCAGGAUAUCCGCUUUAACUAAAUAAAUAAAUAGUGGAGAAGGGACAGCGC [-13.9, -13.37 kcal, 36% A] (Eterna round: R97, puzzle: Exclusion 1)						55.7	46.8	
AGAGUGCUGCGAGGAUAUACAUGAGGAUCACCCAUGUAAUCGUCUGAGGCAAAGCCUCAGACGAAGUAGAAGGCGCAGUACUCA [Mat - Exclusion NG 2 - Mod of JL - D27] (Eterna round: R96, puzzle: Exclusion NG 2)						20	17.9	apparent KD of MS2 coat protein [2, 5]: 12.5 nM
AGGUCACAUGAGGAUCACCCAUGUGAGGAUAUAGACUCAAGAGCUUCGGCUCUCAAGUCUAGAAGGCGCUAUGA [EX1 #50] (Eterna round: R97, puzzle: Exclusion 1)						26.5	28.5	
AUUGAUAGCACAGGAUAUUGAGAUUUGAAUUGACAAGAAGGGUGUACAUGAGGAUCACCCAUGUAAUGGCUGCCUCGUUGAUUA [JR_ExcNG1_Sub005] (Eterna round: R96, puzzle: Exclusion NG 1)								apparent KD of MS2 coat protein [2, 5]: 45.6 nM
UUUUUAUAUGAAGGAUAUACUUAACAUGAGGAUCACCCAUGUGGUGUUGUGAGUGAGUGAGUUUAGUAGAAGGUCAAAUAUUUU [JMF's solution 7] (Eterna round: R96, puzzle: Exclusion NG 2)						583	270	apparent KD of MS2 coat protein [2, 5]: 194 nM
GGCUUCUGAGGAUAUUAACACCGUUACAUGAGGAUCACCCAUGUUCCUCACGCUACGGCUUAAGAAGGCAGAUGAA [Eternabot (Original) Solution 32] (Eterna round: R97, puzzle: Exclusion 5)						29.6	64.9	
